Experimental data taken from PMC4282423.

Biological target: T1, BldD (His-tagged) (Streptomyces coelicolor) (UniProt Q7AKQ8)
T1 sequence: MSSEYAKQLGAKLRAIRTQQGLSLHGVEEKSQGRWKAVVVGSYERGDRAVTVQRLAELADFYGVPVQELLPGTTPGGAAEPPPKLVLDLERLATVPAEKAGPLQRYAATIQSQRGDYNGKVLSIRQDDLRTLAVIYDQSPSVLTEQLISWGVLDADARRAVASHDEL
Assay: DNase I footprinting
Details: EMSA and extract footprinting: 25 mM HEPES pH 7.5, 4 mM DTT, 1 mM ATP, 10 mM Mg-acetate, 4% glycerol, 1 ug poly(dI-dC), 30 C, 20 min; purified BldD …

Sequence: GTGCAGGCCGTCAGCAGCAGGGCGGAGGCGCCCAGGGCACCGACCACGGCCAGCGAACGCAAGGGGGGAAGTCGTCGTGCAGAGCTCATGATGCTGTCCGTAACCGCTCCGTCACGCAGACACACCGGACCGGTATGAAAATCACCCTATTGGCCGGGGTGGGGCGACGTCCCGTGGGCGGCGGGACCGGGAGCCTTCAG (double strand) [sspA promoter footprint probe (7434_F1/7434_R1)]
- binding: binds
